# In article PMC5593896, “A signal-on built in-marker electrochemical aptasensor for human prostate-specific antigen based on a hairbrush-like gold nanostructure”:
# B1: PSA aptamer (SH/MB) (ssDNA)
# DNA: TTTTTAATTAAAGCTCGCCATCAAATAGCTTT
# modifications: 5' SH-(CH2)6; 3' methylene blue
# Molecular target: prostate-specific antigen (PSA) (human, UniProt P07288 25-261)
# Test: electrochemical aptasensor (signal-on, MB marker); immobilized aptamer; linear range 0.125-128 ng/mL, LOD 50 pg/mL (40 in Table 1); no Kd in material; 20 mM Tris-HCl pH 7.4, 1 h at 37 °C, then rinsed with Tris; salt not stated
# Conditions: protein: commercial; label: methylene blue (3', redox marker)
# Chain of prostate-specific antigen (PSA) (P07288 25-261): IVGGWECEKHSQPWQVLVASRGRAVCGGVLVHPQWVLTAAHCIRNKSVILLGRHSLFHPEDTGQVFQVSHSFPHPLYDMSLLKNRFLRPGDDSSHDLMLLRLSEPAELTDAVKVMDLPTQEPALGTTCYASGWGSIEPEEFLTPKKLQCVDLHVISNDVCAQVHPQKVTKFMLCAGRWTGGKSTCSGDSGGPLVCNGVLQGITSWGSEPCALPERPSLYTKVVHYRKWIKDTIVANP
binder,measurement,value
B1,binding result,binds
